In patent US20190309050A1 (SUZHOU THINKING POWER BIOTECHNOLOGY, published 2019):

How the values were obtained:
[1] = molecular target: Robo1 protein (ORIGEN, Art. No.: TP327713) (UniProt Q9Y6N7); experiment: SPR (BIAcore), Robo1 bound to CM5 chip
[2] = molecular target: Robo1 protein (ORIGEN, Art. No.: TP327713) (UniProt Q9Y6N7); experiment: SPR (BIAcore), Robo1 bound to CM5 chip; column headed 'Kd(nM)'
[3] = molecular target: Robo1 protein (ORIGEN, Art. No.: TP327713) (UniProt Q9Y6N7); experiment: ELISA, Robo1 coated at 1 µg/ml, detection with anti-HSA-HRP; stability test, samples 'after treatment' (treatment not described); after treatment (stability test), binding ELISA on coated Robo1
[4] = molecular target: T1, Robo1 protein (ORIGEN, Art. No.: TP327713) (UniProt Q9Y6N7-5 1-1606, limits assumed); experiment: SPR (BIAcore), Robo1 bound to CM5 chip
T1 construct: Bought recombinant protein; also called receptor Robo1; receptor protein Robo1
T1 sequence (Q9Y6N7 other isoform, or with tags, fused parts or gaps limits assumed): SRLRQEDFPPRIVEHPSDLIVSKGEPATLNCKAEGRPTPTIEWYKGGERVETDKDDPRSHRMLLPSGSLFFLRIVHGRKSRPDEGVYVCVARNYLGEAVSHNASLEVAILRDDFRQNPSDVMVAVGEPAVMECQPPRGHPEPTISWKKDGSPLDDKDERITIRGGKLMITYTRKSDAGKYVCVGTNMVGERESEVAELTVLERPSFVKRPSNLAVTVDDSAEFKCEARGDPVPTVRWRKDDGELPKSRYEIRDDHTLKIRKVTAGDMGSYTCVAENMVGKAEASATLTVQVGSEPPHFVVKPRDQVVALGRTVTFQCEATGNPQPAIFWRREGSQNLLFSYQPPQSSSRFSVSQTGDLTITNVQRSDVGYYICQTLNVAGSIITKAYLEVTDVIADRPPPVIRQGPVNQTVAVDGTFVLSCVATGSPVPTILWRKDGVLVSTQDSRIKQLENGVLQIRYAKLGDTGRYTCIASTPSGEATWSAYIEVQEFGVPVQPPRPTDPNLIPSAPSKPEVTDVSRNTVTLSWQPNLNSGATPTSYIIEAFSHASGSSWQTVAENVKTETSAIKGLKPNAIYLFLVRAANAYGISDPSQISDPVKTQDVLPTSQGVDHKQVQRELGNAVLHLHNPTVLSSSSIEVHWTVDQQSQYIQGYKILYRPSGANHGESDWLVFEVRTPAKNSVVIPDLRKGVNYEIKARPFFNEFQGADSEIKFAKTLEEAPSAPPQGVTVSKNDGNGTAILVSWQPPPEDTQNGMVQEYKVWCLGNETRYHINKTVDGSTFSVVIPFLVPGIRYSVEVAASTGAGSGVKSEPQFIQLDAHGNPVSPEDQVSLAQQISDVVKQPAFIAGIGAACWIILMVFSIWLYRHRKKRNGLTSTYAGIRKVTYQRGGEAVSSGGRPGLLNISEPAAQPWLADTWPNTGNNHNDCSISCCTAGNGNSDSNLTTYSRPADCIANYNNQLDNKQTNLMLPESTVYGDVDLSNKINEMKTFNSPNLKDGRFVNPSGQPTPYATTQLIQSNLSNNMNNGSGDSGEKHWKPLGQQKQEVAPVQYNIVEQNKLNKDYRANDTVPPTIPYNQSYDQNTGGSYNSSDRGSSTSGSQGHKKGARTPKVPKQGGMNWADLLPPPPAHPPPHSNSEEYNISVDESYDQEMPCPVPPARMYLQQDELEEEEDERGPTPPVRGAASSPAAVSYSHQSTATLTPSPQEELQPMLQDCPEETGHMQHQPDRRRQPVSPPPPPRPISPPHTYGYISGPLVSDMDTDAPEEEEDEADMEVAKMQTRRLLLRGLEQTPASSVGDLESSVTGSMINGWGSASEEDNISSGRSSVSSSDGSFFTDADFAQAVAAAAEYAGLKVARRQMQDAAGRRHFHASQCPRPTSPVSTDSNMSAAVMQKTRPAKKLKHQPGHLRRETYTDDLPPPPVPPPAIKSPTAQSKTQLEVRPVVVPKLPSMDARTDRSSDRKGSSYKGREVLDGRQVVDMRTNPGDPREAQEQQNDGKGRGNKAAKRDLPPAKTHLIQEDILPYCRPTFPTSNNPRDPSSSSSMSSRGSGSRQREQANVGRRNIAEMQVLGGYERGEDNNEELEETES
Protocol: (§1) The affinity constant between the protein and Robo1 protein was detected by SPR (Surface Plasmon resonance BIAcore 200) method. […] Kinetic measurements were performed according to the method referred by Canziani et al. (2004, Anal. Biochem. 325: 301-307). Furthermore, the affinity of the Slit2N protein (Slit2N is a protein having a molecular weight of about 120 kDa at the N-terminus of the Slit2 protein) to Robo1 protein was also determined by the same method.

[5] = molecular target: T1, Robo1 protein (ORIGEN, Art. No.: …); experiment: SPR (BIAcore), Robo1 bound to CM5 chip; column headed 'Kd(nM)'
Protocol: as §1

[6] = molecular target: T1, Robo1 protein (ORIGEN, Art. No.: …); experiment: SPR (BIAcore), Robo1 bound to CM5 chip; column headed 'KD(M)', by arithmetic the dissociation rate; exponent doubtful
Protocol: as §1

Robo1 protein (ORIGEN, Art. No.: TP327713) (UniProt Q9Y6N7), sequence (Q9Y6N7 other isoform, or with tags, fused parts or gaps limits assumed): as above

Row | Molecule | kon [1] [M⁻¹ s⁻¹] | Kd [2] [nM] | EC50 [3] [nM] | kon [4] [M⁻¹ s⁻¹] | Kd [5] [nM] | koff [6] [s⁻¹]
1 | Slit2D2-HSA (as disclosed in Patent Application PCT/CN2015/092079) (from UniProt O94813 271-479; P02768 25-609) | 177000 | 2.8 | 215 |  |  | 
2 | Slit2N protein (ligand, UniProt O94813 31-1121, looked up) QCSCSGSTVDCHGLALRSVPRNIPRNTERLDLNGNNITRITKTDFAGLRHLRVLQLMENKISTIERGAFQDLKELERLRLNRNHLQLFPELLFLGTAKLYRLDLSENQIQAIPRKAFRGAVDIKNLQLDYNQISCIEDGAFRALRDLEVLTLNNNNITRLSVASFNHMPKLRTFRLHSNNLYCDCHLAWLSDWLRQRPRVGLYTQCMGPSHLRGHNVAEVQKREFVCSGHQSFMAPSCSVLHCPAACTCSNNIVDCRGKGLTEIPTNLPETITEIRLEQNTIKVIPPGAFSPYKKLRRIDLSNNQISELAPDAFQGLRSLNSLVLYGNKITELPKSLFEGLFSLQLLLLNANKINCLRVDAFQDLHNLNLLSLYDNKLQTIAKGTFSPLRAIQTMHLAQNPFICDCHLKWLADYLHTNPIETSGARCTSPRRLANKRIGQIKSKKFRCSAKEQYFIPGTEDYRSKLSGDCFADLACPEKCRCEGTTVDCSNQKLNKIPEHIPQYTAELRLNNNEFTVLEATGIFKKLPQLRKINFSNNKITDIEEGAFEGASGVNEILLTSNRLENVQHKMFKGLESLKTLMLRSNRITCVGNDSFIGLSSVRLLSLYDNQITTVAPGAFDTLHSLSTLNLLANPFNCNCYLAWLGEWLRKKRIVTGNPRCQKPYFLKEIPIQDVAIQDFTCDDGNDDNSCSPLSRCPTECTCLDTVVRCSNKGLKVLPKGIPRDVTELYLDGNQFTLVPKELSNYKHLTLIDLSNNRISTLSNQSFSNMTQLLTLILSYNRLRCIPPRTFDGLKSLRLLSLHGNDISVVPEGAFNDLSALSHLAIGANPLYCDCNMQWLSDWVKSEYKEPGIARCAGPGEMADKLLLTTPSKKFTCQGPVDVNILAKCNPCLSNPCKNDGTCNSDPVDFYRCTCPYGFKGQDCDVPIHACISNPCKHGGTCHLKEGEEDGFWCICADGFEGENCEVNVDDCEDNDCENNSTCVDGINNYTCLCPPEYTGELCEEKLDFCAQDLNPCQHDSKCILTPKGFKCDCTPGYVGEHCDIDFDDCQDNKCKNGAHCTDAVNGYTCICPEGYSGLFCEFSPPMVLPR |  |  |  | 744000 | 4.5 | 0.00339
